Measured values: PMC10877566

Tests used:
Experiment in all cases: bioluminescence (BRET) titration
[1] = tested on: LUMID-3C (NL3C-thiazole orange); conditions: apparent, in base pairs; Hill n not fixed to 1 per Methods; PBS pH 7.4, 0.1% (w/v) BSA, 5% DMSO, 1 nM sensor, 30 min at room temperature, then NanoGlo substrate 1:1000
[2] = tested on: LUMID-2F (NL2F-thiazole orange); conditions: apparent, in base pairs; Hill n 0.65 per Fig 3 legend; PBS pH 7.4, 0.1% (w/v) BSA, 5% DMSO, 1 nM sensor, 30 min at room temperature, then NanoGlo substrate 1:1000
[3] = tested on: LUMID-2C double-glycine (NL2C-2G-thiazole orange); conditions: apparent, in base pairs; PBS pH 7.4, 0.1% (w/v) BSA, 5% DMSO, 1 nM sensor, 30 min at room temperature, then NanoGlo substrate 1:1000
[4] = tested on: LUMID-1C (NL1C-thiazole orange conjugate) C166S;G182C; conditions: apparent, in base pairs; PBS pH 7.4, 0.1% (w/v) BSA, 5% DMSO, 1 nM sensor, 30 min at room temperature, then NanoGlo substrate 1:1000
[5] = tested on: LUMID-2C double-lysine (NL2C-2K-thiazole orange); conditions: apparent, in base pairs; PBS pH 7.4, 0.1% (w/v) BSA, 5% DMSO, 1 nM sensor, 30 min at room temperature, then NanoGlo substrate 1:1000
[6] = tested on: LUMID-2C triple-lysine (NL2C-3K-thiazole orange); conditions: apparent, in base pairs; PBS pH 7.4, 0.1% (w/v) BSA, 5% DMSO, 1 nM sensor, 30 min at room temperature, then NanoGlo substrate 1:1000
[7] = tested on: LUMID-1F (NL1F-thiazole orange conjugate); conditions: apparent, in base pairs; PBS pH 7.4, 0.1% (w/v) BSA, 5% DMSO, 1 nM sensor, 30 min at room temperature, then NanoGlo substrate 1:1000
[8] = tested on: LUMID-2C single-lysine (NL2C-1K-thiazole orange); conditions: apparent, in base pairs; PBS pH 7.4, 0.1% (w/v) BSA, 5% DMSO, 1 nM sensor, 30 min at room temperature, then NanoGlo substrate 1:1000

Chain of LUMID-1C (NL1C-thiazole orange conjugate) C166S;G182C (chain, as listed by the source C166S G182C): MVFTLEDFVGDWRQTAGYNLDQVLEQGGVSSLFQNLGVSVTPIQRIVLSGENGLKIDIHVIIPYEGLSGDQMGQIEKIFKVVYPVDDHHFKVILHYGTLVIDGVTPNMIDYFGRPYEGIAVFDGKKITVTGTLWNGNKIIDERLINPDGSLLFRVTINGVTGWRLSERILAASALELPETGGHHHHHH

Substance: sheared salmon sperm dsDNA (~2000 bp fragments)
- Kd [1]: 2.1 µM
- Kd [2]: 43 µM
- Kd [3]: 279 µM
- Kd [4]: 3100 µM
- Kd [5]: 27 µM
- Kd [6]: 21 µM
- Kd [7]: 4100 µM
- Kd [8]: 142 µM
